Reference: patent US20210338848A1, “COMPOSITIONS AND METHODS FOR DIAGNOSING AND TREATING MACROPHAGE-RELATED DISORDERS USING CARBOHYDRATE-BASED MACR[…]” (Cardinal Health 414, LLC, priority 2016, published 2021)

Experiments:
[1] = biological target: mannose receptor CD206 (Homo sapiens, UniProt P22897); conditions: when administered to mammals; no other receptors bind or transduce
Text: CD206 is a C-type […] binding protein found on the surface of macrophages.

[2] = used to stage breast cancer and melanoma; cited from earlier work

mannose receptor CD206, sequence (P22897 19-1456): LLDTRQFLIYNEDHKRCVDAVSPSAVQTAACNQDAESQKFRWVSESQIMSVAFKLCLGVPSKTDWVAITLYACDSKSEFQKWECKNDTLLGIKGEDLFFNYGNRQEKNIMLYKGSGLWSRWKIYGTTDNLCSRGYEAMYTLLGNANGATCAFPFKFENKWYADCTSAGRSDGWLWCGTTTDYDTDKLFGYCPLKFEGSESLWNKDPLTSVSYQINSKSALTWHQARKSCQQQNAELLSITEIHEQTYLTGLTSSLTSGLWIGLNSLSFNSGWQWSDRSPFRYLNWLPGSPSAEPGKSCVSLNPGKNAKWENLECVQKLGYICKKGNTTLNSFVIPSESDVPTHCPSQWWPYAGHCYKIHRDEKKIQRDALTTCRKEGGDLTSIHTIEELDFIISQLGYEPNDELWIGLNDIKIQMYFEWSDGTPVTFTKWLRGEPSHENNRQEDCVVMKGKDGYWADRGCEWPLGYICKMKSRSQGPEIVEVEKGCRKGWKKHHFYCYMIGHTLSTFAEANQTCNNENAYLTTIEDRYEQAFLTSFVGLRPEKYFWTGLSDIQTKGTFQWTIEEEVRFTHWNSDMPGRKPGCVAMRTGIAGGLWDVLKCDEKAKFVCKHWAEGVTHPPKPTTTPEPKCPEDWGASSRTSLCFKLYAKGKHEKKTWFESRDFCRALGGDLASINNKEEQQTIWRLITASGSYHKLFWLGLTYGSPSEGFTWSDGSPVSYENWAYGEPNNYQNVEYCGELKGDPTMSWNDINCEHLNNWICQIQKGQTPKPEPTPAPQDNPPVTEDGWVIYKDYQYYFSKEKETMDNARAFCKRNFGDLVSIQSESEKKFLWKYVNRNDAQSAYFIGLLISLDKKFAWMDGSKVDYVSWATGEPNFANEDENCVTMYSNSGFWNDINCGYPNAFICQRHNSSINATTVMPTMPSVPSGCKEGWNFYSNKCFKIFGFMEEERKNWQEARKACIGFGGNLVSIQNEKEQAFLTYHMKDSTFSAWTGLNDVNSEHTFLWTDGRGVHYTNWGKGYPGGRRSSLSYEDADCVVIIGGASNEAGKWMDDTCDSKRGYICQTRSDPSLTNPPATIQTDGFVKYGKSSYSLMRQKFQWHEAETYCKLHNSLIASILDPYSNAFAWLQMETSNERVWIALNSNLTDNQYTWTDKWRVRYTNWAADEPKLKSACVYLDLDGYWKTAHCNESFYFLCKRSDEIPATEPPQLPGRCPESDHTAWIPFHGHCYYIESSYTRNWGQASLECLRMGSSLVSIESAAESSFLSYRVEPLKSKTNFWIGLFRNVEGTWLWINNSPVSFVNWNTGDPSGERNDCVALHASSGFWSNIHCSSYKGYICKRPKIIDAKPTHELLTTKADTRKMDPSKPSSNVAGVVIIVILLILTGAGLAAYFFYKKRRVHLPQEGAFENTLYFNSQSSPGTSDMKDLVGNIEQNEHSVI

Substance: dextran 3-[(2-aminoethyl)thio]propyl 17-carboxy-10,13,16-tris(carboxymethyl)-8-oxo-4-thia-7,10,13,16-tetraazaheptadec-1-yl 3-[[2-[[1-imino-2-(D-mannopyranosylthio) ethyl]amino]ethyl]thio]propyl ether complexes [tilmanocept]
- receptor binding specificity [1]: bind exclusively to the mannose receptor CD206

Substance: technetium Tc 99m, dextran 3-[(2-aminoethyl)thio]propyl 17-carboxy-10,13,16-tris(carboxymethyl)-8-oxo-4-thia-7,10,13,16-tetraazaheptadec-1-yl 3-[[2-[[1-imino-2-(D-mannopyranosylthio) ethyl]amino]ethyl]thio]propyl ether complexes [technetium Tc 99m labeled tilmanocept]
- clearance from injection site [2]: rapid clearance from an injection site
- uptake by distal or second-echelon lymph nodes [2]: low uptake by distal or second-echelon lymph nodes
- uptake by sentinel lymph node(s) [2]: rapid and sustained uptake by the sentinel lymph node(s)
